Test system: Escherichia coli TOP10
Experiment: shrunken log2 fold change of peptide-encoding DNA abundance (4.5 h post-induction vs induction); higher = less antimicrobial activity (less host growth inhibition)
Settings: time post-induction: 4.5 h; library: site-saturation at positions 5, 18, 19, 20
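Also: peptides expressed intracellularly from a pBAD plasmid library in pooled LB shake-flask culture, induced with 0.3% L-arabinose, DNA abundance read by NGS, three biological replicates, DESeq2 with apeglm shrinkage.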

| Sequence | shrunken log2 fold change |
| --- | --- |
| RRIRARPPRLPRPRPRPNRIPRP | -0.215 |
| RRIRCRPPRLPRPRPRPIQRPRP | 0.0673 |
| RRIRPRPPRLPRPRPRPPWQPRP | 0.443 |
| RRIRKRPPRLPRPRPRPKVAPRP | 1.23 |
| RRIRHRPPRLPRPRPRPPNTPRP | -0.0573 |
| RRIRTRPPRLPRPRPRPVDAPRP | 0.188 |
| RRIRHRPPRLPRPRPRPIYEPRP | -0.234 |
| RRIRVRPPRLPRPRPRPWRTPRP | 0.0312 |
| RRIRNRPPRLPRPRPRPVVTPRP | -0.114 |
| RRIRHRPPRLPRPRPRPELQPRP | 0.07 |
| RRIRIRPPRLPRPRPRPCTHPRP | -0.791 |
| RRIRSRPPRLPRPRPRPQECPRP | -0.0587 |
| RRIRKRPPRLPRPRPRPRDMPRP | 0.0936 |
| RRIRMRPPRLPRPRPRPFATPRP | 0.609 |
| RRIRVRPPRLPRPRPRPWSGPRP | -0.507 |
| RRIRLRPPRLPRPRPRPWWMPRP | -0.0102 |
| RRIRMRPPRLPRPRPRPVHAPRP | 1.18 |
| RRIRLRPPRLPRPRPRPQFGPRP | -0.291 |
| RRIRWRPPRLPRPRPRPARRPRP | 0.495 |
| RRIRWRPPRLPRPRPRPGGFPRP | 0.664 |
| RRIRKRPPRLPRPRPRPAGFPRP | 0.0388 |
| RRIRRRPPRLPRPRPRPCICPRP | -0.0935 |
| RRIRQRPPRLPRPRPRPTPKPRP | 1.53 |
| RRIRERPPRLPRPRPRPYLYPRP | -0.927 |
| RRIRHRPPRLPRPRPRPNNTPRP | -0.931 |

| Sequence | shrunken log2 fold change |
| --- | --- |
| RRIRQRPPRLPRPRPRPISWPRP | -0.12 |
| RRIRCRPPRLPRPRPRPEKLPRP | -0.077 |
| RRIRMRPPRLPRPRPRPACPPRP | 0.262 |
| RRIRWRPPRLPRPRPRPPSQPRP | 0.452 |
| RRIRWRPPRLPRPRPRPDVDPRP | -0.0413 |
| RRIRCRPPRLPRPRPRPCYCPRP | -0.399 |
| RRIRHRPPRLPRPRPRPQLNPRP | -0.593 |
| RRIRHRPPRLPRPRPRPMFRPRP | -0.422 |
| RRIRGRPPRLPRPRPRPPDMPRP | 0.879 |
| RRIRIRPPRLPRPRPRPAREPRP | 0.604 |
| RRIRHRPPRLPRPRPRPFLSPRP | -0.187 |
| RRIRRRPPRLPRPRPRPMGFPRP | 0.317 |
| RRIRKRPPRLPRPRPRPPRHPRP | 1.04 |
| RRIRKRPPRLPRPRPRPMALPRP | -0.00663 |
| RRIRKRPPRLPRPRPRPFQCPRP | -0.01 |
| RRIRHRPPRLPRPRPRPDYRPRP | -0.127 |
| RRIRDRPPRLPRPRPRPSWCPRP | -0.0805 |
| RRIRSRPPRLPRPRPRPGWLPRP | 0.177 |
| RRIRVRPPRLPRPRPRPHVEPRP | 0.0127 |
| RRIRHRPPRLPRPRPRPTLAPRP | 0.382 |
| RRIRKRPPRLPRPRPRPLQTPRP | 0.182 |
| RRIRNRPPRLPRPRPRPGWMPRP | 0.142 |
| RRIRCRPPRLPRPRPRPYMKPRP | -0.582 |
| RRIRFRPPRLPRPRPRPRGYPRP | -0.25 |
| RRIRKRPPRLPRPRPRPNGSPRP | 0.0677 |

— the supplement of paper PMC9112550, “Optimization of the antimicrobial peptide Bac7 by deep mutational scanning” (BMC Biology, 2022)
